Paper PMC8533794, “Selection of a Nuclease-Resistant RNA Aptamer Targeting CD19”

Assays:
[1] = target: T1, endogenous CD19 of MEC-1 cells (human (MEC-1 B-CLL cell line)) (UniProt P15391); assay: flow cytometry; details: 2'-fluoro pyrimidines; BLI: running buffer not stated (tips prehydrated in PBS), temperature not stated; cell binding: serum-free medium, 37 C, 30 min, with poly(I) 0.1 ug/uL (qPCR) …
T1 sequence: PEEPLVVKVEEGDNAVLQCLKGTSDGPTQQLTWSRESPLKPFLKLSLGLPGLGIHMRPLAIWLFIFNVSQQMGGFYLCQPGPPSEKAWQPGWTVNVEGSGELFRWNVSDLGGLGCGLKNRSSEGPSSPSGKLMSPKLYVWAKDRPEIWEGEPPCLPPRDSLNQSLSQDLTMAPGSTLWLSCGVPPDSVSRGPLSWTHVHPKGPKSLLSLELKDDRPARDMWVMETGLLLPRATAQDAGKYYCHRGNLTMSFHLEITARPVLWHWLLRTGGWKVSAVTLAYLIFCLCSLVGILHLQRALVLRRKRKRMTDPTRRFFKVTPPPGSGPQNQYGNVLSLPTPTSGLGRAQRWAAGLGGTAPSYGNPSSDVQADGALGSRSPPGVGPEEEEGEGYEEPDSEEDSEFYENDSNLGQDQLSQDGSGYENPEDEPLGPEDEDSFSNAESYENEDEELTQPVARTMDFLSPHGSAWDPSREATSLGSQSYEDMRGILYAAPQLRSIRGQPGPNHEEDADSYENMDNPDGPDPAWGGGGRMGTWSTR

[2] = target: T2, CD19 on transfected COS-7 cells (human) (UniProt P15391); assay: cell binding RT-qPCR; details: 200 nM aptamer, poly(I); 2'-fluoro pyrimidines; BLI: running buffer not stated (tips prehydrated in PBS), temperature not stated; cell binding: serum-free medium, 37 C, 30 min, with poly(I) 0.1 ug/uL (qPCR) …
T2 sequence: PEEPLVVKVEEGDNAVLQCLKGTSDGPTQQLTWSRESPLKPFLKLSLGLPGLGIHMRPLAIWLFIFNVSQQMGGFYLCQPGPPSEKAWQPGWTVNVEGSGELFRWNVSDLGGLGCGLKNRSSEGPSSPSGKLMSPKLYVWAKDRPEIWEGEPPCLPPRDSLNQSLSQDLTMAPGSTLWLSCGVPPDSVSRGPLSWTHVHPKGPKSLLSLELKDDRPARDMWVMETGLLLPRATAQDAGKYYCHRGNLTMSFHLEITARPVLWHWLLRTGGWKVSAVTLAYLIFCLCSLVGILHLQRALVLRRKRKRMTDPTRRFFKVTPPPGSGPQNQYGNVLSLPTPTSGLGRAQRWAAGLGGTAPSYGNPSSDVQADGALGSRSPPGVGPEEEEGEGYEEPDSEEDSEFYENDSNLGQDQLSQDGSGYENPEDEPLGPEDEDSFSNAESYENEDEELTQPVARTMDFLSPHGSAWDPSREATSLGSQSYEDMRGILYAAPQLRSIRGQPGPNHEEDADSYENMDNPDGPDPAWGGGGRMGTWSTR

[3] = target: T3, rhCD19 (recombinant human CD19, extracellular domain) (human, UniProt P15391 20-291); assay: BLI; 2.5-100 nM aptamer; BLI: running buffer not stated (tips prehydrated in PBS), temperature not stated; cell binding: serum-free medium, 37 C, 30 min, with poly(I) 0.1 ug/uL (qPCR) or tRNA 0.4 ug/uL plus 100 nM Ctrl Apt (FACS); pull-down lysis: 10 mM Tris-HCl pH 7.5, 200 mM NaCl, 5 mM EDTA, 0.1% Triton X-100; details: protein: recombinant
[4] = target: rhBCMA (B Cell Maturation Antigen) (human, UniProt Q02223 1-54); assay: BLI; up to 1 uM aptamer; BLI: running buffer not stated (tips prehydrated in PBS), temperature not stated; cell binding: serum-free medium, 37 C, 30 min, with poly(I) 0.1 ug/uL (qPCR) or tRNA 0.4 ug/uL plus 100 nM Ctrl Apt (FACS); pull-down lysis: 10 mM Tris-HCl pH 7.5, 200 mM NaCl, 5 mM EDTA, 0.1% Triton X-100; details: protein: recombinant
[5] = target: T3, rhCD19 (recombinant human CD19, …); assay: as above; details: protein: recombinant

rhBCMA (B Cell Maturation Antigen), sequence (Q02223 1-54): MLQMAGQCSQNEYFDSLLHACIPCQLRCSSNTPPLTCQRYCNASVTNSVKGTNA

**Q.** “UGAGCCCUGUUCGACAGGAGGCUCA [B85.T2 (FAM)]” was tested. Which binding signal (fold over Jurkat) [1] did it give?
**A.** 2

**Q.** For CCUGUUGUUCGACAGGAGGCUCACAACAGG [B88.T2], which binding signal (fold over parental COS-7) [2] is on record?
**A.** 7

**Q.** How did the binding signal (fold over parental COS-7) [2] turn out when UGAGCCCUGUUCGACAGGAGGCUCA [B85.T2] was run?
**A.** 22

**Q.** For UGAGCCCUGUUCGACAGGAGGCUCA (structured_RNA, 2'-fluoro pyrimidines) [B85.T2], which Kd [3] is on record?
**A.** 49.9 ± 13 nM

**Q.** Does UGAGCCCUGUUCGACAGGAGGCUCA (structured_RNA, 2'-fluoro pyrimidines) [B85.T2] bind [4]?
**A.** no binding

**Q.** Does UUCGUACCGGGUAGGUUGGCUUGCACAUAGAACGUGUCA (structured_RNA, 2'-fluoro pyrimidines) [Ctrl Apt] bind [5]?
**A.** no binding
